Our source for the EC50 and IC50, neutralization of BDBV values is patent publication US20200200749A1.

Experiment [1] addresses BDBV GP (recombinant, full-length extracellular domain) (BDBV (Bundibugyo ebolavirus)). Nature of the experiment: ELISA, GP coated on plate, mAb serially diluted.
In experiment [2] the target is BDBV GP on virus (BDBV (Bundibugyo ebolavirus)). Nature of the experiment: cell-based or functional assay.

B1: EBOV62 (antibody, V domains shown)
VH: EVQLVESGGGLVQPGGSLRLSCAASGFTFSSYWMSWVRQAPGKGLEWVANIKQDGSAKYYVDSVKGRFTISRDNAKNSLYLQMNSLRAEDTAVYYCARDGLLGISDLLYPIYYFDYWGQGTLVTVSS
VL: DIVMTQSPSSLSASVGDRVTITCRASQNIGSYLNWYQQKPGKAPNLLMYAASSLQSGVPSRFSGSGSGTDFTLTITSLQPEDFATYYCQQSYSIPRTFGQGTQLEIK
As a reminder, the EC50 is the concentration giving half of the maximal effect. B1: the EC50 in experiment [1] was found to be 508 µg/mL.

B2: BDBV223 (antibody, V domains shown)
VH: QVQLQQWGAGLLKPSETLSLTCAVYGGSFTTTYWNWIRQPPGKGLEWIGEVNYSGNANYNPSLKGRVAISVDTSKNQFSLRLNSVTAADTAIYYCTSRIRSHIAYSWKGDVWGKGTTVTVSS
VL: EIVMTQSPGTLSLSPGERATLSCRASQSVPRNYIGWFQQKPGQAPRLLIYGASSRAAGFPDRFSGSGSGTDFTLTITRLEPEDFAMYYCHQYDRLPYTFGQGTKLEIK
B2 gave an IC50, neutralization of BDBV in experiment [2] of 0.005 µg/mL.
